Publication PMC4105210 (Nature communications, 2014)
Positions count from the first letter of the chain named. Names may count otherwise.

Tests used:
[1] = biological target: T1, HSV-1 UL31Δ50 (residues 51-306) (HSV-1 strain F, UniProt P10215 51-306); experiment: SEC
T1 sequence: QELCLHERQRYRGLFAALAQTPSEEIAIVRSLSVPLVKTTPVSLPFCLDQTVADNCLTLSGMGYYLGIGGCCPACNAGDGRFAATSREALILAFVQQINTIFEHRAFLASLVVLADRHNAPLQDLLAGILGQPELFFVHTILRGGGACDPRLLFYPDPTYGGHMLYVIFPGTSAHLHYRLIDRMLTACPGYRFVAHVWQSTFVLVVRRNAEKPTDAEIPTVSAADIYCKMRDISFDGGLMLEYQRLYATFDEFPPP

[2] = biological target: T2, HSV-1 UL31, full length (residues 1-306) (HSV-1 strain F, UniProt P10215 1-306); experiment: co-purification
T2 sequence: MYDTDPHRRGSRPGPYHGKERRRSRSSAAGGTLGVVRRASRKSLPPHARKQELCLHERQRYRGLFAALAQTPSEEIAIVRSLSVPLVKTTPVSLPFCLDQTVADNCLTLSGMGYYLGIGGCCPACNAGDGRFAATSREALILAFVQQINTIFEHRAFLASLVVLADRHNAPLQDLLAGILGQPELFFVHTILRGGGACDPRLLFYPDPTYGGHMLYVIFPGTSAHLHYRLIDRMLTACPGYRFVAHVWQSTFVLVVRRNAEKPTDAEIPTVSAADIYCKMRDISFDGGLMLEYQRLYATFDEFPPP

cryo-EM structure = biological target: the molecule itself; experiment: cryo-EM structure
cross-linking = biological target: the molecule itself; experiment: cross-linking
[3] = biological target: T2, HSV-1 UL31, full length (residues 1-306); experiment: SEC

B1: HSV-1 UL34(1-220) (domain or fragment)
chain: MAGLGKPYTGHPGDAFEGLVQRIRLIVPSTLRGGDGEAGPYSPSSLPSRCAFQFHGHDGSDESFPIEYVLRLMNDWAEVPCNPYLRIQNTGVSVLFQGFFHRPHNAPGGAITPERTNVILGSTETTGLSLGDLDTIKGRLGLDARPMMASMWISCFVRMPRVQLAFRFMGPEDAGRTRRILCRAAEQAITRRRRTRRSREAYGAEAGLGVAGTGFRARGD
B1: binds [1]; binds [2].

B2: HSV-1 nuclear egress complex NEC220 (UL31 1-306 with UL34 1-220) (complex)
chain 1: T2 sequence
chain 2: B1 chain
For B2, the “stoichiometry N” value (cryo-EM structure) was 6.

B3: HSV-1 nuclear egress complex NEC220-DN (UL31 1-306 with UL34 1-220 D35A/E37A) (complex)
chain 1: T2 sequence
chain 2: B1 chain with D35A, E37A
B3: binds (cross-linking).

B4: HSV-1 UL34(1-185) (domain or fragment)
chain: MAGLGKPYTGHPGDAFEGLVQRIRLIVPSTLRGGDGEAGPYSPSSLPSRCAFQFHGHDGSDESFPIEYVLRLMNDWAEVPCNPYLRIQNTGVSVLFQGFFHRPHNAPGGAITPERTNVILGSTETTGLSLGDLDTIKGRLGLDARPMMASMWISCFVRMPRVQLAFRFMGPEDAGRTRRILCRAA
B4: binds [3]; binds [1].
